# Variants at the floor of the assay were thinned out.
# Key:
# biotinyl-Leu-oxazolone = assay: self-aminoacylation, catalytic enhancement (BLO) (fold over background); higher = more active; k-Seq, kA / k0A0; sequences stand for … in GGGAAUGGAUCCACAUCUACGAAUUC…UUCACUGCAGACUUGACGAAGCUG
# How it was run: (§1)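 The uncatalyzed rate is the low-activity peak of a bimodal Gaussian fit, and catalytic enhancement is median kA divided by it. The kA values came from pseudo-first-order fits, with 1000 bootstraps, of per-sequence fraction reacted measured by streptavidin capture, triplicate qPCR and Illumina sequencing. Mutagenized RNA pools with a 21-nt variable region (0.43 μM) were reacted with each biotinyl-aminoacyl-oxazolone at 2–1250 μM in 50 μL HEPES/NaCl/KCl/MgCl2/CaCl2 buffer with 5% acetonitrile, pH 6.9–7.0, for 90 minutes at room temperature.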
# biotinyl-Met-oxazolone = assay: self-aminoacylation, catalytic enhancement (BMO) (fold over background); higher = more active; k-Seq, kA / k0A0; sequences stand for … in GGGAAUGGAUCCACAUCUACGAAUUC…UUCACUGCAGACUUGACGAAGCUG
# How it was run: as §1
# biotinyl-Val-oxazolone = assay: self-aminoacylation, catalytic enhancement (BVO) (fold over background); higher = more active; k-Seq, kA / k0A0; sequences stand for … in GGGAAUGGAUCCACAUCUACGAAUUC…UUCACUGCAGACUUGACGAAGCUG
# How it was run: as §1
# biotinyl-Phe-oxazolone = assay: self-aminoacylation, catalytic enhancement (BFO) (fold over background); higher = more active; k-Seq, kA / k0A0; sequences stand for … in GGGAAUGGAUCCACAUCUACGAAUUC…UUCACUGCAGACUUGACGAAGCUG
# How it was run: as §1
# biotinyl-Ile-oxazolone = assay: self-aminoacylation, catalytic enhancement (BIO) (fold over background); higher = more active; k-Seq, kA / k0A0; sequences stand for … in GGGAAUGGAUCCACAUCUACGAAUUC…UUCACUGCAGACUUGACGAAGCUG
# How it was run: as §1
# biotinyl-Trp-oxazolone = assay: self-aminoacylation, catalytic enhancement (BWO) (fold over background); higher = more active; k-Seq, kA / k0A0; sequences stand for … in GGGAAUGGAUCCACAUCUACGAAUUC…UUCACUGCAGACUUGACGAAGCUG
# How it was run: as §1
Sequence,self-aminoacylation (biotinyl-Leu-oxazolone),self-aminoacylation (biotinyl-Met-oxazolone),self-aminoacylation (biotinyl-Val-oxazolone),self-aminoacylation (biotinyl-Phe-oxazolone),self-aminoacylation (biotinyl-Ile-oxazolone),self-aminoacylation (biotinyl-Trp-oxazolone)
AUUCACCUAGGUCCUCGGGUC [Fam2.2 aminoacylation ribozyme variant],1.16,1.51,1.34,4.38,1.21,0.77
AUUCAGCUAGUUCAUCGGGUG [Fam2.2 aminoacylation ribozyme variant],9.16,7.01,4.95,52.3,5.34,7.26
CUACUUCAAACAUACGGUCUG [Fam1A.1 aminoacylation ribozyme variant],0.662,0.565,0.763,0.561,0.776,0.556
CCACACCACAAGCAAUCGGUC [Fam1B.1 aminoacylation ribozyme variant],0.949,0.999,1.1,0.854,1.13,0.871
AUUACCAUGGUUAUCGAGUGA [Fam2.1 aminoacylation ribozyme variant],10.6,9.62,4.79,69.6,4.38,12.2
AUUACCCAGGUCAUCGGGUGA [Fam2.1 aminoacylation ribozyme variant],12.6,11.5,7.25,75.2,5.86,11
CCACCCUUCAAGCAAUCGGUA [Fam1B.1 aminoacylation ribozyme variant],1.59,1.38,1.6,0.981,1.4,2.06
AAGUUUGCUAAUCGUGGCAAG [Fam3.1 aminoacylation ribozyme variant],0.521,0.604,0.813,0.796,0.713,0.625
AUCCACCUAGGUCAUGGGGUG [Fam2.2 aminoacylation ribozyme variant],6.65,5.64,3.77,56.5,3.54,5.9
AUUACCCUGGUCAUCGUGGGA [Fam2.1 aminoacylation ribozyme variant],1.58,1.33,1.22,4.91,1.18,1.98
AUGACCCUGGUCAUCGUGUGA [Fam2.1 aminoacylation ribozyme variant],2.88,2.76,1.5,17.4,1.4,2.61
AAGUCUGCUAAUAGCCGCAAG [Fam3.1 aminoacylation ribozyme variant],0.989,1.13,1.02,8.57,1.11,3.25
AUUACGCUGGUCAUCGAGUAA [Fam2.1 aminoacylation ribozyme variant],1.26,1.43,1.53,0.975,1.6,1.8
AAUCACCUAGGUCAUUGGGUG [Fam2.2 aminoacylation ribozyme variant],3.6,2.74,2.65,13.1,2.94,4.15
AUUCCCCUACGUCAUCGGGUG [Fam2.2 aminoacylation ribozyme variant],20.9,16,11,127,10.9,16
CCACACUGCAAGCAAUCGAUC [Fam1B.1 aminoacylation ribozyme variant],0.739,0.56,1.07,1.39,0.9,0.727
AAGUUUGCUACUAGUCGCAAC [Fam3.1 aminoacylation ribozyme variant],0.763,0.845,0.874,0.697,0.737,0.917
CCACACUUCAAGCGACCGGUC [Fam1B.1 aminoacylation ribozyme variant],1.33,1.11,1.52,0.483,1.22,1.63
AUGCACCGAGGUCAUCGGGUG [Fam2.2 aminoacylation ribozyme variant],6.58,5.79,3.66,40.4,3.81,6.46
AAGUUUGCUAAUAGUCGAAAG [Fam3.1 aminoacylation ribozyme variant],1.14,1.47,1.22,17.9,1.38,5.4
CUACUACUAACAAUCGGUCUG [Fam1A.1 aminoacylation ribozyme variant],0.495,0.729,0.673,1,0.764,0.466
AUUCACCUAGGUAUUCGGGUG [Fam2.2 aminoacylation ribozyme variant],5.02,3.34,2.59,21.8,2.81,3.35
CUAGUUCUAACAAUCGGUCUG [Fam1A.1 aminoacylation ribozyme variant],0.849,0.762,0.762,0.672,0.831,0.588
AUUUACCUAGGUCAUCCGGUG [Fam2.2 aminoacylation ribozyme variant],7.4,4.7,3.81,41.8,3.68,4.6
CAACCUCAAACAAUCGGUCUG [Fam1A.1 aminoacylation ribozyme variant],1.61,1.37,1.31,11.5,1.21,4.78
CCAUUCUUCAAGCAAUCGGUC [Fam1B.1 aminoacylation ribozyme variant],0.992,0.939,0.976,2.79,1.04,1.68

Sequence,self-aminoacylation (biotinyl-Leu-oxazolone),self-aminoacylation (biotinyl-Met-oxazolone),self-aminoacylation (biotinyl-Val-oxazolone),self-aminoacylation (biotinyl-Phe-oxazolone),self-aminoacylation (biotinyl-Ile-oxazolone),self-aminoacylation (biotinyl-Trp-oxazolone)
AAGUUUGGUAAUAGCCGCAAG [Fam3.1 aminoacylation ribozyme variant],1.15,1.39,1.01,1.19,1.27,1.42
CCACAUUUCAAGUAAUCGGUC [Fam1B.1 aminoacylation ribozyme variant],1.14,1.03,1.05,2.1,1.21,1.77
AUUACCCAGCUCAUCGAGUGA [Fam2.1 aminoacylation ribozyme variant],1.52,1.54,1.56,1.01,1.47,1.32
AACUUUGCUAAUAGUCGCAAA [Fam3.1 aminoacylation ribozyme variant],3.39,3.32,2.31,13.6,2.8,2.36
CUACUUCAAACAAUCGGUGUA [Fam1A.1 aminoacylation ribozyme variant],1.12,1.05,0.946,1.33,0.983,0.989
CCACACUUCGAGCAAUCGGUG [Fam1B.1 aminoacylation ribozyme variant],3.3,2.48,1.91,15.2,1.62,2.07
CCACACUGCAAGCAAUCGGUU [Fam1B.1 aminoacylation ribozyme variant],1.63,2.17,1.73,5.76,1.77,1.76
AUUCACCUAGAUCAUCGCGUG [Fam2.2 aminoacylation ribozyme variant],8.58,5.82,3.69,48.1,3.85,5.99
UUACUUCAAACCAUCGGUCUG [Fam1A.1 aminoacylation ribozyme variant],0.847,1.06,1.03,1.23,1.09,1.02
AAGUUGGCUAAUAGUCGCAGG [Fam3.1 aminoacylation ribozyme variant],1.97,1.6,1.34,3.81,1.59,1.23
AAUACCCUGGUUAUCGAGUGA [Fam2.1 aminoacylation ribozyme variant],7.89,6.97,3.59,30.8,3.37,9.84
AUUCACCGAGGUCAUCGGAUG [Fam2.2 aminoacylation ribozyme variant],1.41,1.07,1.17,0.641,1.18,1.42
CUUCUUCAAACAAUCGUUCUG [Fam1A.1 aminoacylation ribozyme variant],0.65,0.62,0.6,1.06,0.68,0.804
AAGUUUGCUAAUAGUCAGAAG [Fam3.1 aminoacylation ribozyme variant],0.808,1.01,0.937,2.61,0.943,2.22
UUACUUCAGACAAUCGGUCUG [Fam1A.1 aminoacylation ribozyme variant],1.3,1.11,1.12,1.73,1.14,1.12
GUACUUCAAACAAUCGGCCUG [Fam1A.1 aminoacylation ribozyme variant],7.02,4.06,4.17,272,4.51,89.6
CCACAAUUCAAGCAAUCGAUC [Fam1B.1 aminoacylation ribozyme variant],0.685,0.699,0.888,0.898,0.742,0.675
CUACUUCAACCAAUCGGUCUU [Fam1A.1 aminoacylation ribozyme variant],1.32,0.975,0.934,16,1.02,8.43
CUACUACAAACAAUCGGUCUU [Fam1A.1 aminoacylation ribozyme variant],0.515,0.565,0.675,0.658,0.533,0.511
CUACUUCAAGCAAUCGGUCUU [Fam1A.1 aminoacylation ribozyme variant],0.97,0.87,1.06,6.92,1.07,4.63
CUACUUAAGACAAUCGGUCUG [Fam1A.1 aminoacylation ribozyme variant],0.668,0.909,0.783,0.817,0.775,0.71
ACACACUUCAAGCAAUCGGAC [Fam1B.1 aminoacylation ribozyme variant],0.979,0.97,1.02,1.42,1.1,1.43
AUUACCCUGGUCAUCCCGUGA [Fam2.1 aminoacylation ribozyme variant],9.66,7.44,4.22,43.3,3.61,9.33
AUUGCCCUGGUCAACGAGUGA [Fam2.1 aminoacylation ribozyme variant],6.71,6.85,3.53,49.1,3.3,7.12
CCCCAGUUCAAGCAAUCGGUC [Fam1B.1 aminoacylation ribozyme variant],3.86,2.77,2.65,7.95,2.48,7.44
